Reference: US20250262210A1 (TRUSTEES OF COLUMBIA UNIVERSITY IN THE CITY OF NEW YORK, published 2025)

Target: T1, RPAP1 (human, UniProt Q9BWH6 1-1393, limits assumed)
T1 sequence (looked up): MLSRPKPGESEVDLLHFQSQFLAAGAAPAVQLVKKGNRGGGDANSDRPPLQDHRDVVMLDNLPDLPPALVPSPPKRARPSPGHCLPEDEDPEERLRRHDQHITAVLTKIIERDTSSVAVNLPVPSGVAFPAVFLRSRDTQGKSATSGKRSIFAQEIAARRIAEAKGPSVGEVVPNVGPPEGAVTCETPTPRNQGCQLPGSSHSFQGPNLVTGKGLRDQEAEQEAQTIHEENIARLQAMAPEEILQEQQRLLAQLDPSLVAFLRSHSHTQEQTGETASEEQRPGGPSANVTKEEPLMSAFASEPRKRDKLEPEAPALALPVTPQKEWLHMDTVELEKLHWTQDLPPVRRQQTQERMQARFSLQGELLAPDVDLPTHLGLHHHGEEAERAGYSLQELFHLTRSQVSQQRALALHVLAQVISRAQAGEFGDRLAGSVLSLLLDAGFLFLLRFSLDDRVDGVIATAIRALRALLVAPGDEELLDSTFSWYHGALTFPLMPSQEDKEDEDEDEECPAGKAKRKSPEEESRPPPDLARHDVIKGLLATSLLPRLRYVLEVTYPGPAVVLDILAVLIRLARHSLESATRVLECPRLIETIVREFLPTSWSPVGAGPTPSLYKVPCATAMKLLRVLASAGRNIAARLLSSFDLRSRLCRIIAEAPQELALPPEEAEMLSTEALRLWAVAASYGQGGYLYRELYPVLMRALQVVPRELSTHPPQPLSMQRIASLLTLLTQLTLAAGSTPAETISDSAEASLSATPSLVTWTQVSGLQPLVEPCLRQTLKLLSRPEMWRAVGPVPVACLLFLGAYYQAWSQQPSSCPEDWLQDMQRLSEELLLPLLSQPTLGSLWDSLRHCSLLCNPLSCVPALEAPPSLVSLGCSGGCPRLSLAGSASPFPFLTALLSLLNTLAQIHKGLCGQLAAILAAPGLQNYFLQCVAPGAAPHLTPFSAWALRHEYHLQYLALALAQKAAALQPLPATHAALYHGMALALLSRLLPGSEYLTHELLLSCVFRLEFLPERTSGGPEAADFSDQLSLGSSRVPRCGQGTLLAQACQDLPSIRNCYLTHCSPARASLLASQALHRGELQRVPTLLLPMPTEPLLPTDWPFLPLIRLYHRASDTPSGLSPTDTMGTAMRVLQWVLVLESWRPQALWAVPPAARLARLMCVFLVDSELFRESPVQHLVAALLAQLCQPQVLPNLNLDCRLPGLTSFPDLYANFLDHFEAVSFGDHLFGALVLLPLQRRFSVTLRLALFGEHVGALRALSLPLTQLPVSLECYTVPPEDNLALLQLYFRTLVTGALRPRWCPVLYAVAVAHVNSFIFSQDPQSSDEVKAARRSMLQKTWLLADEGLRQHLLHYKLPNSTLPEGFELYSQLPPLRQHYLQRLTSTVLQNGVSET
Experiment: IP/MS, LZTR1 R810W-FLAG, U87
Summary of the method: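 Extracted peptides in 3% acetonitrile/0.1% formic acid ran on a 50 cm C18 column into an Orbitrap Fusion, with MaxQuant identification and spectral counting.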

B1: LZTR1 R810W-FLAG (other, human, UniProt Q8N653 1-840, looked up)
chain: MAGPGSTGGQIGAAALAGGARSKVAPSVDFDHSCSDSVEYLTLNFGPFETVHRWRRLPPCDEFVGARRSKHTVVAYKDAIYVFGGDNGKTMLNDLLRFDVKDCSWCRAFTTGTPPAPRYHHSAVVYGSSMFVFGGYTGDIYSNSNLKNKNDLFEYKFATGQWTEWKIEGRLPVARSAHGATVYSDKLWIFAGYDGNARLNDMWTIGLQDRELTCWEEVAQSGEIPPSCCNFPVAVCRDKMFVFSGQSGAKITNNLFQFEFKDKTWTRIPTEHLLRGSPPPPQRRYGHTMVAFDRHLYVFGGAADNTLPNELHCYDVDFQTWEVVQPSSDSEVGGAEVPERACASEEVPTLTYEERVGFKKSRDVFGLDFGTTSAKQPTQPASELPSGRLFHAAAVISDAMYIFGGTVDNNIRSGEMYRFQFSCYPKCTLHEDYGRLWESRQFCDVEFVLGEKEECVQGHVAIVTARSRWLRRKITQARERLAQKLEQEAAPVPREAPGVAAGGARPPLLHVAIREAEARPFEVLMQFLYTDKIKYPRKGHVEDVLLIMDVYKLALSFQLCRLEQLCRQYIEASVDLQNVLVVCESAARLQLSQLKEHCLNFVVKESHFNQVIMMKEFERLSSPLIVEIVRRKQQPPPRTPLDQPVDIGTSLIQDMKAYLEGAGAEFCDITLLLDGHPRPAHKAILAARSSYFEAMFRSFMPEDGQVNISIGEMVPSRQAFESMLRYIYYGEVNMPPEDSLYLFAAPYYYGFYNNRLQAYCKQNLEMNVTVQNVLQILEAADKTQALDMKRHCLHIIVHQFTKVSKLPTLWSLSQQLLLDIIDSLASHISDKQCAELGADI
notes: Stably expressed in U87 cells by lentivirus; also called LZTR1-FLAG-R810W; LZTR1 RW; not shown: FLAG tag
binding result: binds
